Results on seven molecules are retold here after US20230346938A1 (Memorial Sloan Kettering, published 2023).

Assay [1] addresses T1, soluble CD19-HSA fusion protein (CD19 extracellular domains fused to human serum albumin) (human, UniProt P15391 20-291).
T1 construct: extracellular domain; also called recombinant CD19 antigen; not shown: human serum albumin
T1 sequence (looked up): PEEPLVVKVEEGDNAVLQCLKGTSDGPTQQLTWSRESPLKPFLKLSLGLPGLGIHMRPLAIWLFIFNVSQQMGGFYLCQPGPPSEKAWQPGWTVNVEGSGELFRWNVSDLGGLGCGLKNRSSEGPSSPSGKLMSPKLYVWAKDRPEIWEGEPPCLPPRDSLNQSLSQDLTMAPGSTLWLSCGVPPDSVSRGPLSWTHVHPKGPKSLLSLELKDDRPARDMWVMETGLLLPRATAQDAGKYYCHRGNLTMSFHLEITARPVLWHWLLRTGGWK
As to the kind of experiment: BLI (ForteBio Octet RED384), IgG on AHC sensors, 100 nM soluble CD19-HSA, 1:1 model. In general terms: Biolayer interferometry detects binding as a change in optical thickness at a sensor tip.

The target of assay [2] is T2, CD19 endogenously expressed on Raji and NALM-6 cells (human, UniProt P15391 20-556).
T2 construct: whole, on cells; also called CD19 on NALM-6 cells; CD19 on Raji cells
T2 sequence (looked up): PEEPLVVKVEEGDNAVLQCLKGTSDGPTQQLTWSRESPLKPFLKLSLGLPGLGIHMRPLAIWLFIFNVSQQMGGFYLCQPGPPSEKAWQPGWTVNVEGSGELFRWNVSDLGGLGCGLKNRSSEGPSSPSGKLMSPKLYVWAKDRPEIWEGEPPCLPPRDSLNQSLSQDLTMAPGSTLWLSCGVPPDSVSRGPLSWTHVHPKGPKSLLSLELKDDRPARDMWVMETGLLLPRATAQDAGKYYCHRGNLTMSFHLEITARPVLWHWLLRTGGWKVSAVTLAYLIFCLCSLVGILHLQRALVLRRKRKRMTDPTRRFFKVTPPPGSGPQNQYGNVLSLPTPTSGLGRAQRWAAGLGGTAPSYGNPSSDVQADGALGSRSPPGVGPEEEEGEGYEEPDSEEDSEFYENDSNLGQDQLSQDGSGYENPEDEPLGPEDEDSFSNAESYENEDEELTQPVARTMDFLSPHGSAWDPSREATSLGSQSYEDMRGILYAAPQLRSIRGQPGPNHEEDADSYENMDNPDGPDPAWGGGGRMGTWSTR
As to the kind of experiment: flow cytometry, serial dilution on NALM-6 cells.

B1: Antibody 6 (antibody, V domains shown)
VH: QVQLVESGGGVVQPGRSLRLSCAASGFTFSSYGMHWVRQAPGKGLEWVALIWYDGSNKYYADSVKGRFTISRDNSKNTLYLQMNSLRAEDTAVYYCAKPVEGLLRGFDYWGQGTLVTVSS
VL: EIVLTQSPGTLSLSPGERATLSCRASQSVRSSYLAWYQQKPGQAPRLLIYGASSRATGIPDRFSGSGSGTDFTLTISRLEPEDFAVYYCQQAGVPPLTFGGGTKVEIK
notes: Human IgG produced in Adimab yeast, purified on Protein A; Has the VH and VL of #6 scFv; also called CD19 Antibody 6
For orientation: Kd means the free concentration of one partner at which half of the binding sites on the other are occupied at equilibrium, for simple one-to-one binding. As usually defined, the koff is the rate constant with which the complex falls apart. The term kon denotes the rate constant with which the complex forms. One may read the EC50 as the concentration that produces a half-maximal response. Low values mean a more potent agent, high ones a less potent agent. Regarding B1, in assay [1], binding was put at a Kd of 6.4 nM, the koff worked out at 0.000484 s⁻¹ and the association rate constant (kon) stood at 75600 M⁻¹ s⁻¹. The molecule further registered an EC50 in assay [2] of 0.18 nM.

B2: Antibody 5 (antibody, V domains shown)
VH: QVQLVESGGGVVQPGRSLRLSCAASGFTFSSYGMHWVRQAPGKGLEWVALIWYDGSNKYYADSVKGRFTISRDNSKNTLYLQMNSLRAEDTAVYYCAKPVEGLLRGFDYWGQGTLVTVSS
VL: EIVLTQSPGTLSLSPGERATLSCRASQSVSSSYLAWYQQKPGQAPRLLIYGASSRATGIPDRFSGSGSGTDFTLTISRLEPEDFAVYYCQQAGGVPPLTFGGGTKVEIK
notes: Human IgG produced in Adimab yeast, purified on Protein A; Has the VH and VL of #5 scFv; also called CD19 Antibody 5
Turning to B2, in assay [1], the Kd is 10.4 nM, the dissociation rate constant (koff) was 0.000785 s⁻¹ and the kon was 75600 M⁻¹ s⁻¹. In assay [2], this molecule yielded a concentration giving a half-maximal response (EC50) of 0.219 nM.

B3: Antibody 15 (antibody, V domains shown)
VH: QVQLVESGGGVVQPGRSLRLSCAASGFTFSSYGMHWVRQAPGKGLEWVALIWYDGSNKYYADSVKGRFTISRDNSKNTLYLQMNSLRAEDTAVYYCAKPVEGLLRGFDYWGQGTLVTVSS
VL: EIVLTQSPGTLSLSPGERATLSCRASQSVSSSYLAWYQQKPGQAPRLLIYGASRRATGIPDRFSGSGSGTDFTLTISRLEPEDFAVYYCQQAGIPPYTFGGGTKVEIK
notes: Human IgG produced in Adimab yeast, purified on Protein A; Has the VH and VL of #15 scFv; also called CD19 Antibody 15
In assay [1], B3 returned a dissociation constant (Kd) of 20.8 nM, a koff of 0.00145 s⁻¹ and an on-rate (kon) of 69800 M⁻¹ s⁻¹. Besides, in assay [2], the midpoint of the response, the EC50, lay at 0.27 nM.

B4: Antibody 1 (antibody, V domains shown)
VH: QVQLVESGGGVVQPGRSLRLSCAASGFTFSSYGMHWVRQAPGKGLEWVALIWYDGSNKYYADSVKGRFTISRDNSKNTLYLQMNSLRAEDTAVYYCAKPVEGLLRGFDYWGQGTLVTVSS
VL: EIVMTQSPGTLSLSPGERATLSCRASQSVSSSYLAWYQQKPGQAPRLLIYGASNRATGIPDRFSGSGSGTDFTLTISRLEPEDFAVYYCQQAGVFPFTFGGGTKVEIK
notes: Human IgG produced in Adimab yeast, purified on Protein A; Has the VH and VL of #1 scFv; also called CD19 Antibody 1
In assay [1], B4 displayed a dissociation constant (Kd) of 32.9 nM, an off-rate (koff) of 0.00176 s⁻¹ and a kon of 53400 M⁻¹ s⁻¹. The molecule further had a 50% effective concentration (EC50) in assay [2] of 0.588 nM.

B5: Antibody 4 (antibody, V domains shown)
VH: QVQLVESGGGVVQPGRSLRLSCAASGFTFSSYGMHWVRQAPGKGLEWVALIWYDGSNKYYADSVKGRFTISRDNSKNTLYLQMNSLRAEDTAVYYCAKPVEGLLRGFDYWGQGTLVTVSS
VL: EIVLTQSPGTLSLSPGERATLSCRASQSVSSSYLAWYQQKPGQAPRLLIYGASSRATGIPDRFSGSGSGTDFTLTISRLEPEDFAVYYCQQVDSLHPFTFGGGTKVEIK
notes: Human IgG produced in Adimab yeast, purified on Protein A; Has the VH and VL of #4 scFv; also called CD19 Antibody 4
As for B5, in assay [1], the Kd was 9.27 nM, the koff amounted to 0.000218 s⁻¹ and the kon was found to be 23500 M⁻¹ s⁻¹. This molecule returned a 50% effective concentration (EC50) in assay [2] of 0.519 nM.

B6: Antibody 7 (antibody, V domains shown)
VH: QVQLVESGGGVVQPGRSLRLSCAASGFTFSSYGMHWVRQAPGKGLEWVALIWYDGSNKYYADSVKGRFTISRDNSKNTLYLQMNSLRAEDTAVYYCAKPVEGLLRGFDYWGQGTLVTVSS
VL: EIVMTQSPGTLSLSPGERATLSCRASQSVSSSYLAWYQQKPGQAPRLLIYGASSRATGIPDRFSGSGSGTDFTLTISRLEPEDFAVYYCQQAGGVPPFTFGGGTKVEIK
notes: Human IgG produced in Adimab yeast, purified on Protein A; Has the VH and VL of #7 scFv; also called CD19 Antibody 7
In assay [1], B6 returned a Kd of 14.9 nM, a koff of 0.00105 s⁻¹ and an association rate constant (kon) of 70000 M⁻¹ s⁻¹. In assay [2], the response was half-maximal at 0.21 nM (EC50).

B7: Antibody 2 (antibody, V domains shown)
VH: QVQLVESGGGVVQPGRSLRLSCAASGFTFSSYGMHWVRQAPGKGLEWVALIWYDGSNKYYADSVKGRFTISRDNSKNTLYLQMNSLRAEDTAVYYCAKPVEGLLRGFDYWGQGTLVTVSS
VL: EIVLTQSPGTLSLSPGERATLSCRASQSVSSSYLAWYQQKPGQAPRLLIYGASSRATGIPDRFSGSGSGTDFTLTISRLEPEDFAVYYCQQAGAVPITFGGGTKVEIK
notes: Human IgG produced in Adimab yeast, purified on Protein A; also called CD19 Antibody 2
For B7, in assay [1], the equilibrium dissociation constant (Kd) came out at 9.01 nM, the koff was found to be 0.000554 s⁻¹ and the kon amounted to 61500 M⁻¹ s⁻¹. For the same molecule, the midpoint of the response in assay [2], the EC50, lay at 0.314 nM.
